In series [1] the test system is ALS2_T1 TALE-nuclease left subunit. The series is described as follows: cell_activity. To be noted: yeast beta-galactosidase reporter, 37 C, as pair with right subunit; SD or SE 0.02; 0.86 (0.02) at 30 C; NHEJ in N. benthamiana protoplasts 70.68% (DNA, no UTR).
Series [2] has as its system ALS2_T1 TALE-nuclease right subunit. Kind of series: cell_activity. To be noted: yeast beta-galactosidase reporter, 37 C, as pair with left subunit; SD or SE 0.02; 0.86 (0.02) at 30 C; NHEJ in N. benthamiana protoplasts 70.68% (DNA, no …).

In series [1], “TAGCTTGTTCCACATTT (double strand) [ALS2_T1 left target half-site]” had an activity (relative to I-SceI (max 1.0)) of 0.97.

In series [2], “TGTCATGCTGGGTCAG (double strand) [ALS2_T1 right target half-site]” registered an activity (relative to I-SceI (max 1.0)) of 0.97.

The values above are taken from patent US20170081672.
